One experiment has as its target T1, mouse IL-18 (mouse, UniProt P70380 36-192).
T1 construct: also called murine IL-18
T1 sequence: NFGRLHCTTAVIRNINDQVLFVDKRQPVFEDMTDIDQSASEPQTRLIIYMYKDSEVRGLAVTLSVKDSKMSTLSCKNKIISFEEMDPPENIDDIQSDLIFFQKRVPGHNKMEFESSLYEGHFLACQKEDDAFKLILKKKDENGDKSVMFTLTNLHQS
The experiment is described as follows: Biacore (row 'Human/mouse IL-18 Biacore').

The target of experiment [1] is T2, human IL-18 (human, UniProt Q14116 37-193).
T2 construct: also called hIL-18
T2 sequence: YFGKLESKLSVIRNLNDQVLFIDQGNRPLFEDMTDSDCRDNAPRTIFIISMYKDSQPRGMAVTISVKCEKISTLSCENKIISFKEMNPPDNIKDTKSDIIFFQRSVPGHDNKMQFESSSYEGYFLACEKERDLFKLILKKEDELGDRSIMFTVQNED
The experiment is described as follows: immunoprecipitation (row 'Human IL-18 immunoprecipitation').

Experiment [2] concerns the target T2, human IL-18. The experiment is described as follows: Biacore (row 'Human/mouse IL-18 Biacore').

The values that follow come from patent US20090011979A1 (VIRON THERAPEUTICS, published 2009).

B1: tagged YCI (YMTV IL-18 bp with a C-terminal myc/his tag) (other)
chain: EKECDKHRSVNIQVPMKETSEVLLRCTGSSYFKHFSYVYWLVGESETVDQLQQNSGYGETSHPSKPHECGNLPSADLVLTNMTEKMRDTKLTCVLMDPDGHIDESLVLREVWDCFNKT
notes: also called 6xHis-tagged YCI; his-tagged version of the YCI
Consider B1, for which the binding result with mouse IL-18 and in the experiment with human IL-18 [1] was “binds” in each case.

B2: untagged YCI (YMTV IL-18 bp, YMTV Cytokine Inhibitor, without tag) (other)
chain: EKECDKHRSVNIQVPMKETSEVLLRCTGSSYFKHFSYVYWLVGESETVDQLQQNSGYGETSHPSKPHECGNLPSADLVLTNMTEKMRDTKLTCVLMDPDGHIDESLVLREVWDCFNKT
notes: also called IL-18 bp from YMTV; purified untagged YCI protein
Regarding B2, the binding result in the experiment with human IL-18 [2] and in the experiment with mouse IL-18 was “binds” each time.
